Measured values reported in patent publication US20190030123A1.
pKd: −log10 of the molar value.

Experiments:
[1] = molecular target: HIS-tagged neonatal Fc receptor (FcRn, No. CT009-H08H from Sino Biological Inc) (UniProt P55899); experiment: BLI (Octet RED 96), His-FcRn on Ni-NTA biosensor, aflibercept as analyte, pH 6.0; sample (d) Eylea, stored 3 months at 40 C/75% relative humidity
[2] = molecular target: HIS-tagged neonatal Fc receptor (FcRn, No. CT009-H08H from Sino Biological Inc) (UniProt P55899); experiment: BLI (Octet RED 96), His-FcRn on Ni-NTA biosensor, aflibercept as analyte, pH 6.0; sample (d) Eylea, starting material T0
[3] = molecular target: HIS-tagged neonatal Fc receptor (FcRn, No. CT009-H08H from Sino Biological Inc) (UniProt P55899); experiment: BLI (Octet RED 96), His-FcRn on Ni-NTA biosensor, aflibercept as analyte, pH 6.0; formulation (c), stored 3 months at 5 C
[4] = molecular target: HIS-tagged neonatal Fc receptor (FcRn, No. CT009-H08H from Sino Biological Inc) (UniProt P55899); experiment: BLI (Octet RED 96), His-FcRn on Ni-NTA biosensor, aflibercept as analyte, pH 6.0; formulation (b), starting material T0
[5] = molecular target: HIS-tagged neonatal Fc receptor (FcRn, No. CT009-H08H from Sino Biological Inc) (UniProt P55899); experiment: BLI (Octet RED 96), His-FcRn on Ni-NTA biosensor, aflibercept as analyte, pH 6.0; formulation (a), stored 3 months at 40 C/75% relative humidity
[6] = molecular target: HIS-tagged neonatal Fc receptor (FcRn, No. CT009-H08H from Sino Biological Inc) (UniProt P55899); experiment: BLI (Octet RED 96), His-FcRn on Ni-NTA biosensor, aflibercept as analyte, pH 6.0; formulation (b), stored 3 months at 5 C
[7] = molecular target: HIS-tagged neonatal Fc receptor (FcRn, No. CT009-H08H from Sino Biological Inc) (UniProt P55899); experiment: BLI (Octet RED 96), His-FcRn on Ni-NTA biosensor, aflibercept as analyte, pH 6.0; formulation (a), stored 3 months at 5 C
[8] = molecular target: HIS-tagged neonatal Fc receptor (FcRn, No. CT009-H08H from Sino Biological Inc) (UniProt P55899); experiment: BLI (Octet RED 96), His-FcRn on Ni-NTA biosensor, aflibercept as analyte, pH 6.0; sample (d) Eylea, stored 3 months at 5 C
[9] = molecular target: HIS-tagged neonatal Fc receptor (FcRn, No. CT009-H08H from Sino Biological Inc) (UniProt P55899); experiment: BLI (Octet RED 96), His-FcRn on Ni-NTA biosensor, aflibercept as analyte, pH 6.0; formulation (c), stored 3 months at 40 C/75% relative humidity
[10] = molecular target: HIS-tagged neonatal Fc receptor (FcRn, No. CT009-H08H from Sino Biological Inc) (UniProt P55899); experiment: BLI (Octet RED 96), His-FcRn on Ni-NTA biosensor, aflibercept as analyte, pH 6.0; formulation (a), starting material T0
[11] = molecular target: HIS-tagged neonatal Fc receptor (FcRn, No. CT009-H08H from Sino Biological Inc) (UniProt P55899); experiment: BLI (Octet RED 96), His-FcRn on Ni-NTA biosensor, aflibercept as analyte, pH 6.0; formulation (c), starting material T0
[12] = molecular target: HIS-tagged neonatal Fc receptor (FcRn, No. CT009-H08H from Sino Biological Inc) (UniProt P55899); experiment: BLI (Octet RED 96), His-FcRn on Ni-NTA biosensor, aflibercept as analyte, pH 6.0; formulation (b), stored 3 months at 40 C/75% relative humidity

HIS-tagged neonatal Fc receptor (FcRn, No. CT009-H08H from Sino Biological Inc), sequence (P55899 24-297 limits assumed, chain 1 of 2): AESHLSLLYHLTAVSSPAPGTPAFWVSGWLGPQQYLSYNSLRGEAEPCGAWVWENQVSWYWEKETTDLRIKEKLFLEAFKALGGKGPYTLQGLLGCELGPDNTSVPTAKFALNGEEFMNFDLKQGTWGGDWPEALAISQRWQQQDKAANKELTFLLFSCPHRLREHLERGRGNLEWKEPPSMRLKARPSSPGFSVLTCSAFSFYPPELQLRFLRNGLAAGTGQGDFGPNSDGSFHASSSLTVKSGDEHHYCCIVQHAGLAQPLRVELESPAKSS
HIS-tagged neonatal Fc receptor (FcRn, No. CT009-H08H from Sino Biological Inc), sequence (chain, as listed by the source H08H H08H limits assumed, chain 2 of 2): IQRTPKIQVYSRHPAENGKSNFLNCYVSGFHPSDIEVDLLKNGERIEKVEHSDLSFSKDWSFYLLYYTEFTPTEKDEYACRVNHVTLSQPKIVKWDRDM

aflibercept (from UniProt P17948 129-230; P35968 225-327) (Fc fusion)
pKd [1]: 10.22
koff [1]: 3e-05 s⁻¹
kon [1]: 493000 M⁻¹ s⁻¹
pKd [2]: 10.00
koff [2]: 5.56e-05 s⁻¹
kon [2]: 560000 M⁻¹ s⁻¹
pKd [3]: 9.99
koff [3]: 6.28e-05 s⁻¹
kon [3]: 610000 M⁻¹ s⁻¹
koff [4]: 6.47e-05 s⁻¹
kon [4]: 613000 M⁻¹ s⁻¹
pKd [5]: 10.04
koff [5]: 4.11e-05 s⁻¹
kon [5]: 454000 M⁻¹ s⁻¹
pKd [6]: 10.03
koff [6]: 5.71e-05 s⁻¹
kon [6]: 619000 M⁻¹ s⁻¹
pKd [7]: 10.01
koff [7]: 5.84e-05 s⁻¹
kon [7]: 596000 M⁻¹ s⁻¹
pKd [8]: 10.01
koff [8]: 6.11e-05 s⁻¹
kon [8]: 631000 M⁻¹ s⁻¹
pKd [9]: 10.23
koff [9]: 2.71e-05 s⁻¹
kon [9]: 459000 M⁻¹ s⁻¹
pKd [10]: 9.93
koff [10]: 6.56e-05 s⁻¹
kon [10]: 556000 M⁻¹ s⁻¹
pKd [11]: 9.97
koff [11]: 6.44e-05 s⁻¹
kon [11]: 605000 M⁻¹ s⁻¹
pKd [12]: 10.23
koff [12]: 2.86e-05 s⁻¹
kon [12]: 483000 M⁻¹ s⁻¹
